The source of these data is publication doi:10.1101/2024.06.06.597810.

For the assay, the target named is Biotin-labeled MHV stem helix peptide (MHV). Nature of the assay: BLI.

pKd: −log10 of the molar value.

By pKd is commonly meant −log10 of the Kd, conventionally taken in molar units. High values mean a small Kd, low ones a large Kd. In turn, S2P6 WT Fab showed a pKd of 7.15.
